# Laboratory results as given in PMC2881104.
# Target: regulatory domain of OxyR (NMB0173) from Neisseria meningitidis, reduced form (N. meningitidis)
# Test: crystal structure; selenomethionine protein, His tag removed, 9 mg/ml in 20 mM Tris pH 7.5, 200 mM NaCl, 2 mM TCEP; reservoir 20% w/v PEG 3350, 0.2 M calcium acetate; 2.4 Å; dimer in the asymmetric unit
substance,measurement,value
"regulatory domain of OxyR (NMB0173) from Neisseria meningitidis, reduced form (domain or fragment)",stoichiometry N,2
